According to the supplement of paper PMC9233669:
This sample holds only a part of the variants without activity.

Experiments:
biotinyl-Phe-oxazolone = test: self-aminoacylation, catalytic enhancement (BFO) (fold over background); higher = more active; k-Seq, kA / k0A0; sequences stand for … in GGGAAUGGAUCCACAUCUACGAAUUC…UUCACUGCAGACUUGACGAAGCUG
How it was run: (§1)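 Catalytic enhancement equals the median kA over the uncatalyzed rate, the latter read from the low-activity peak of a bimodal Gaussian fit. Values of kA came from fitting each sequence's fraction reacted to a pseudo-first-order model, with 1000 bootstraps. Reacted RNA was captured with streptavidin and quantified by triplicate qPCR and Illumina sequencing after 90 minutes at room temperature with 2–1250 μM biotinyl-aminoacyl-oxazolone and 0.43 μM mutagenized RNA pools bearing a 21-nt variable region.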

biotinyl-Trp-oxazolone = test: self-aminoacylation, catalytic enhancement (BWO) (fold over background); higher = more active; k-Seq, kA / k0A0; sequences stand for … in GGGAAUGGAUCCACAUCUACGAAUUC…UUCACUGCAGACUUGACGAAGCUG
How it was run: as §1

biotinyl-Met-oxazolone = test: self-aminoacylation, catalytic enhancement (BMO) (fold over background); higher = more active; k-Seq, kA / k0A0; sequences stand for … in GGGAAUGGAUCCACAUCUACGAAUUC…UUCACUGCAGACUUGACGAAGCUG
How it was run: as §1

biotinyl-Ile-oxazolone = test: self-aminoacylation, catalytic enhancement (BIO) (fold over background); higher = more active; k-Seq, kA / k0A0; sequences stand for … in GGGAAUGGAUCCACAUCUACGAAUUC…UUCACUGCAGACUUGACGAAGCUG
How it was run: as §1

biotinyl-Leu-oxazolone = test: self-aminoacylation, catalytic enhancement (BLO) (fold over background); higher = more active; k-Seq, kA / k0A0; sequences stand for … in GGGAAUGGAUCCACAUCUACGAAUUC…UUCACUGCAGACUUGACGAAGCUG
How it was run: as §1

biotinyl-Val-oxazolone = test: self-aminoacylation, catalytic enhancement (BVO) (fold over background); higher = more active; k-Seq, kA / k0A0; sequences stand for … in GGGAAUGGAUCCACAUCUACGAAUUC…UUCACUGCAGACUUGACGAAGCUG
How it was run: as §1

| Sequence | self-aminoacylation (biotinyl-Phe-oxazolone) | self-aminoacylation (biotinyl-Trp-oxazolone) | self-aminoacylation (biotinyl-Met-oxazolone) | self-aminoacylation (biotinyl-Ile-oxazolone) | self-aminoacylation (biotinyl-Leu-oxazolone) | self-aminoacylation (biotinyl-Val-oxazolone) |
| --- | --- | --- | --- | --- | --- | --- |
| CCACUUCGAACAAUCGGUCUG [Fam1A.1 aminoacylation ribozyme variant] | 1.26 | 1.32 | 1.77 | 1.15 | 1.41 | 1.24 |
| CCAGACGUCAAGCAAUCGGUC [Fam1B.1 aminoacylation ribozyme variant] | 0.503 | 0.65 | 1.52 | 1.24 | 1.99 | 1.99 |
| CCAGACUCCAAGCAAUCGGUC [Fam1B.1 aminoacylation ribozyme variant] | 2.16 | 1.48 | 1.17 | 1.22 | 1.23 | 1.23 |
| CCAGAGUUCAAGCAAUCGGUC [Fam1B.1 aminoacylation ribozyme variant] | 1.42 | 1.72 | 1.21 | 1.36 | 1.36 | 1.2 |
| CCAGUCUUCAAGCAAUCGGUC [Fam1B.1 aminoacylation ribozyme variant] | 68.5 | 38.6 | 1.79 | 1.67 | 2.8 | 1.63 |
| CCAUACUGCAAGCAAUCGGUC [Fam1B.1 aminoacylation ribozyme variant] | 1.06 | 0.938 | 1.15 | 1.14 | 0.996 | 1.14 |
| CCAUACUUCAAGCAAUAGGUC [Fam1B.1 aminoacylation ribozyme variant] | 1.03 | 0.513 | 0.505 | 0.72 | 0.597 | 0.633 |
| CCAUACUUCAAGCAAUCGAUC [Fam1B.1 aminoacylation ribozyme variant] | 1.01 | 0.638 | 0.45 | 0.666 | 0.489 | 0.842 |
| CCAUACUUCAAGCAAUCGGUA [Fam1B.1 aminoacylation ribozyme variant] | 1.04 | 1.1 | 1.22 | 1.33 | 1.1 | 1.26 |
| CCAUACUUCAAGCAAUCGGUC [Fam1B.1 aminoacylation ribozyme variant] | 22.5 | 10.1 | 0.921 | 1.07 | 1.14 | 1.11 |
| CCAUACUUCAAGUAAUCGGUC [Fam1B.1 aminoacylation ribozyme variant] | 8.18 | 5 | 0.825 | 0.914 | 1.07 | 0.861 |
| CCCCACUUCAAGCAAUCGAUC [Fam1B.1 aminoacylation ribozyme variant] | 2.79 | 1.27 | 0.533 | 0.768 | 0.67 | 0.93 |
| CCCCACUUCAAGCGAUCGGUC [Fam1B.1 aminoacylation ribozyme variant] | 5.13 | 4.88 | 2.53 | 1.69 | 1.68 | 2.02 |
| CCGAACUUCAAGCAAUCGGUC [Fam1B.1 aminoacylation ribozyme variant] | 34.4 | 20.6 | 1.43 | 1.26 | 1.68 | 1.54 |
| CCGCACUUAAAGCAAUCGGUC [Fam1B.1 aminoacylation ribozyme variant] | 0.932 | 1.15 | 1.1 | 1.13 | 1.05 | 1.25 |
| CCGCACUUCAAGCAAUGGGUC [Fam1B.1 aminoacylation ribozyme variant] | 1.13 | 1.08 | 0.802 | 0.918 | 1.04 | 1.21 |
| CCGCACUUCAAGGAAUCGGUC [Fam1B.1 aminoacylation ribozyme variant] | 10.7 | 10.8 | 1.37 | 1.45 | 1.44 | 1.52 |
| CCGCACUUCAAUCAAUCGGUC [Fam1B.1 aminoacylation ribozyme variant] | 39.7 | 28.7 | 1.26 | 1.27 | 2.03 | 1.62 |
| CCGCACUUCGAGCAAUCGGUC [Fam1B.1 aminoacylation ribozyme variant] | 5.29 | 2.26 | 1.46 | 1.22 | 1.46 | 2.27 |
| CCGCAGUUCAAGCAAUCGGUC [Fam1B.1 aminoacylation ribozyme variant] | 5.75 | 6.86 | 1.96 | 1.58 | 1.85 | 1.82 |
| CCGCUCUUCAAGCAAUCGGUC [Fam1B.1 aminoacylation ribozyme variant] | 35.5 | 26.3 | 1.6 | 1.42 | 1.92 | 1.76 |
| CCGUACUUCAAGCAAUCGGUC [Fam1B.1 aminoacylation ribozyme variant] | 34.5 | 18.4 | 1.06 | 1.16 | 1.42 | 1.3 |
| CCUCACCUCAAGCAAUCGGUC [Fam1B.1 aminoacylation ribozyme variant] | 4.38 | 2.12 | 0.79 | 1.02 | 0.963 | 1.3 |
| CCUCACUUCAAACAAUCGGUC [Fam1B.1 aminoacylation ribozyme variant] | 93.7 | 37.3 | 1.51 | 1.21 | 2.35 | 1.25 |
| CCUCACUUCAAGCAACCGGUC [Fam1B.1 aminoacylation ribozyme variant] | 1.67 | 1.29 | 0.857 | 0.978 | 0.806 | 0.834 |
| CCUCACUUCAAGCAAUCGGUA [Fam1B.1 aminoacylation ribozyme variant] | 1.91 | 1.57 | 1.51 | 1.05 | 1.22 | 1.11 |

| Sequence | self-aminoacylation (biotinyl-Phe-oxazolone) | self-aminoacylation (biotinyl-Trp-oxazolone) | self-aminoacylation (biotinyl-Met-oxazolone) | self-aminoacylation (biotinyl-Ile-oxazolone) | self-aminoacylation (biotinyl-Leu-oxazolone) | self-aminoacylation (biotinyl-Val-oxazolone) |
| --- | --- | --- | --- | --- | --- | --- |
| CCUCACUUCAAGCAAUCGGUG [Fam1B.1 aminoacylation ribozyme variant] | 25.3 | 6.88 | 6.58 | 4.12 | 9.05 | 4.01 |
| CCUCACUUCCAGCAAUCGGUC [Fam1B.1 aminoacylation ribozyme variant] | 1.23 | 0.965 | 0.651 | 1.05 | 0.861 | 1.06 |
| CCUCACUUUAAGCAAUCGGUC [Fam1B.1 aminoacylation ribozyme variant] | 1.2 | 0.683 | 0.544 | 0.734 | 0.619 | 0.688 |
| CCUCCCUUCAAGCAAUCGGUC [Fam1B.1 aminoacylation ribozyme variant] | 13.8 | 8.87 | 0.881 | 1.2 | 1.17 | 1.13 |
| CGACACUUCAAGCAAUCGGGC [Fam1B.1 aminoacylation ribozyme variant] | 8.3 | 2.12 | 1.36 | 1.91 | 1.85 | 2.43 |
| CGACACUUCAAGCAAUCGGUA [Fam1B.1 aminoacylation ribozyme variant] | 2.02 | 2.9 | 1.44 | 1.86 | 1.41 | 1.84 |
| CGACACUUCAAGCAUUCGGUC [Fam1B.1 aminoacylation ribozyme variant] | 3.31 | 1.51 | 1.64 | 1.8 | 1.55 | 1.99 |
| CGACACUUCCAGCAAUCGGUC [Fam1B.1 aminoacylation ribozyme variant] | 0.915 | 1.15 | 1.14 | 1.56 | 1.19 | 1.49 |
| CGACAUCAAACAAUCGGUCUG [Fam1A.1 aminoacylation ribozyme variant] | 3.7 | 2.71 | 1.05 | 1.11 | 0.934 | 1.19 |
| CGACUUAAAACAAUCGGUCUG [Fam1A.1 aminoacylation ribozyme variant] | 1.15 | 1.06 | 1.48 | 1.33 | 1.26 | 1.17 |
| CGACUUCAAACAAGCGGUCUG [Fam1A.1 aminoacylation ribozyme variant] | 1.23 | 1.45 | 1.6 | 1.39 | 1.11 | 1.37 |
| CGACUUCAAAGAAUCGGUCUG [Fam1A.1 aminoacylation ribozyme variant] | 9.34 | 7.38 | 1.32 | 1.31 | 1.66 | 1.3 |
| CUAAUUCAAACAAUCCGUCUG [Fam1A.1 aminoacylation ribozyme variant] | 0.937 | 0.609 | 0.635 | 0.682 | 0.578 | 0.764 |
| CUAAUUCAAACAAUCGCUCUG [Fam1A.1 aminoacylation ribozyme variant] | 0.713 | 0.67 | 0.668 | 0.628 | 0.527 | 0.653 |
| CUAAUUCAAACAAUCGGUCAG [Fam1A.1 aminoacylation ribozyme variant] | 1.46 | 0.765 | 0.583 | 0.602 | 0.566 | 0.546 |
| CUAAUUCAAACAAUCGGUCCG [Fam1A.1 aminoacylation ribozyme variant] | 0.604 | 0.513 | 0.575 | 0.553 | 0.732 | 0.539 |
| CUAAUUCAAACAAUCGGUCUA [Fam1A.1 aminoacylation ribozyme variant] | 1.65 | 0.635 | 0.549 | 0.612 | 0.497 | 0.593 |
| CUAAUUCAAACCAUCGGUCUG [Fam1A.1 aminoacylation ribozyme variant] | 0.795 | 0.589 | 0.817 | 0.967 | 0.949 | 0.848 |
| CUAAUUCAAACUAUCGGUCUG [Fam1A.1 aminoacylation ribozyme variant] | 1.1 | 0.685 | 1.09 | 0.978 | 0.938 | 0.936 |
| CUAAUUCAAAGAAUCGGUCUG [Fam1A.1 aminoacylation ribozyme variant] | 0.767 | 0.78 | 0.742 | 0.805 | 0.806 | 0.842 |
| CUAAUUCAUACAAUCGGUCUG [Fam1A.1 aminoacylation ribozyme variant] | 0.621 | 0.52 | 0.637 | 0.767 | 0.594 | 0.77 |
| CUAAUUCUAACAAUCGGUCUG [Fam1A.1 aminoacylation ribozyme variant] | 0.731 | 0.474 | 0.652 | 0.751 | 0.624 | 0.714 |
| CUAAUUGAAACAAUCGGUCUG [Fam1A.1 aminoacylation ribozyme variant] | 0.706 | 0.64 | 0.944 | 0.78 | 0.752 | 0.775 |
| CUACACUUCAAGCAAUCGGUA [Fam1B.1 aminoacylation ribozyme variant] | 1.37 | 0.846 | 0.709 | 0.739 | 0.755 | 0.65 |
| CUACACUUCAAGCAAUCGGUU [Fam1B.1 aminoacylation ribozyme variant] | 9.78 | 7.05 | 1.47 | 1.29 | 1.46 | 1.27 |
